Values quoted from earlier work as cited in PMC5722893.
pKd: −log10 of the molar value.

Columns and labels:
[1] = target: TSLP:TSLPR complex (Homo sapiens) (UniProt Q969D9)
TSLPR (Homo sapiens) = TSLPR (Homo sapiens) (UniProt Q9HC73)
Chain of UniProt Q9HC73 (Q9HC73 23-231): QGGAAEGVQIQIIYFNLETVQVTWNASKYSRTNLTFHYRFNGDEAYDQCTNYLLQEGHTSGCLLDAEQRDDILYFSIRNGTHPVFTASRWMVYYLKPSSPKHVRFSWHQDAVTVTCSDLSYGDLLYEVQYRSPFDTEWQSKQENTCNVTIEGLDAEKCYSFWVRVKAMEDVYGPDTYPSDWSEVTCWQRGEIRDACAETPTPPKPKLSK

pKd [1] | pKd (TSLPR (Homo sapiens)) | Substance
7.54 |  | IL-7Ralpha (from UniProt P16871)
 | 7.49 | TSLP (from UniProt Q969D9)
